As a reminder, the Kd is a measure of binding affinity in units of concentration.

These results are taken from patent US20230190925A1 (CENTRE NATIONAL DE LA RECHERCHE SCIENTIFIQUE CNRS, published 2023).

Assay [1] concerns the target T1, recombinant phage T5 capsid produced from plasmid pETcapT5Δdec (assembled in the absence of pb10) (bacteriophage T5, UniProt Q6QGD8 160-458; Q6QGD5 11-403).
T1 construct: also called capsids produced from the plasmid pETcapT5Δdec; pETcapT5Δpb10 capsids
T1 sequence 1: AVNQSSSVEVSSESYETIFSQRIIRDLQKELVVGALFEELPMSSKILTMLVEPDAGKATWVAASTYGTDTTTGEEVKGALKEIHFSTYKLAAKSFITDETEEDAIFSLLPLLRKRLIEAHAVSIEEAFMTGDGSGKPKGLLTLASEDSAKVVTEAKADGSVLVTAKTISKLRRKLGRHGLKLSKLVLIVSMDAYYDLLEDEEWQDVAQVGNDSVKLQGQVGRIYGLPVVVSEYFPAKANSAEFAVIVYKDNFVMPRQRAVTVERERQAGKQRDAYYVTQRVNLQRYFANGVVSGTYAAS
T1 sequence 2: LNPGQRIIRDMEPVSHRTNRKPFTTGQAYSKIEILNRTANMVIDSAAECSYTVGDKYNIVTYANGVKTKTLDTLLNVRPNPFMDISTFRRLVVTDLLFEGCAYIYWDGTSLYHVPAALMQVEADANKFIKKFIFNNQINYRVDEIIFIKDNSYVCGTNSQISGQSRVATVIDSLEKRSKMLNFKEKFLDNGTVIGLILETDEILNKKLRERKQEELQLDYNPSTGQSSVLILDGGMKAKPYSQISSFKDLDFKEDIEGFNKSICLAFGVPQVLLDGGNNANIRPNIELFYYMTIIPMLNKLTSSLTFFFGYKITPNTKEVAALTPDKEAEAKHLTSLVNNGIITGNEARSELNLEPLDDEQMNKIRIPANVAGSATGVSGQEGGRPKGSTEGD
Kind of assay: native agarose gel retardation.

The target of assay [2] is T2, empty phage T5 capsid, undecorated, produced from the mutant phage T5stAmN5-Δdec (UniProt Q6QGD8 160-458; Q6QGD5 11-403).
T2 chain 1: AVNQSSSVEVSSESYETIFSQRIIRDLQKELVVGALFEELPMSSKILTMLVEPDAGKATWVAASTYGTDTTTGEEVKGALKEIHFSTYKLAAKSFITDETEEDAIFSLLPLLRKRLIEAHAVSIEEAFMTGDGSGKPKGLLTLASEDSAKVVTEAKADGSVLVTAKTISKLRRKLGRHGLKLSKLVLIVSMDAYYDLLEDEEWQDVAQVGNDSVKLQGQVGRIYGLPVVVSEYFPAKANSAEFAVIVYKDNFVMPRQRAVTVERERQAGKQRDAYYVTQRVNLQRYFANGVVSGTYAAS
T2 chain 2: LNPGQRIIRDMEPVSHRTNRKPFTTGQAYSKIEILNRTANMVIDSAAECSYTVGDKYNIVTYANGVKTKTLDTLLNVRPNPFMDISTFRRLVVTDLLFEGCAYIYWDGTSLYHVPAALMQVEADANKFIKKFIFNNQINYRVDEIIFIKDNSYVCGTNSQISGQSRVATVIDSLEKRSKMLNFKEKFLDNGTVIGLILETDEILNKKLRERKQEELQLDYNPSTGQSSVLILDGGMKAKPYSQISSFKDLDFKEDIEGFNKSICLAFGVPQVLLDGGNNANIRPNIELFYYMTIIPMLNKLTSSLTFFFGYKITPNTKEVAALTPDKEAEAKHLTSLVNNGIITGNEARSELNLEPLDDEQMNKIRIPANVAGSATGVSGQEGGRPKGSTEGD
Kind of assay: SPR. On the technique in general: SPR reads the build-up and loss of mass on a sensor chip optically.

Assay [3] has as its target T2, empty phage T5 capsid, undecorated, …. Kind of assay: SPR; 25 °C.
Assay [4] has as its target T3, empty phage T5 capsid, undecorated, produced from the mutant phage T5stAmN5-Δdec (bacteriophage T5, UniProt Q6QGD8 160-458; Q6QGD5 11-403).
T3 construct: devoid of DNA and of pb10, expanded form; also called empty capsids; pure empty capsids
T3 sequence 1: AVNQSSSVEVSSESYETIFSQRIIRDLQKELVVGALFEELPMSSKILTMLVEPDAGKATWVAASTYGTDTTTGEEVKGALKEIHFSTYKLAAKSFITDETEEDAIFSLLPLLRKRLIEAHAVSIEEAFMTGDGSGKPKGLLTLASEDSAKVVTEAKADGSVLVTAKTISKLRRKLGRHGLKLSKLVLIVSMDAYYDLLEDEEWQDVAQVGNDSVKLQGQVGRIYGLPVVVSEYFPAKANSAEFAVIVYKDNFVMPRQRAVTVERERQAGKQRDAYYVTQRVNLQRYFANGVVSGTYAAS
T3 sequence 2: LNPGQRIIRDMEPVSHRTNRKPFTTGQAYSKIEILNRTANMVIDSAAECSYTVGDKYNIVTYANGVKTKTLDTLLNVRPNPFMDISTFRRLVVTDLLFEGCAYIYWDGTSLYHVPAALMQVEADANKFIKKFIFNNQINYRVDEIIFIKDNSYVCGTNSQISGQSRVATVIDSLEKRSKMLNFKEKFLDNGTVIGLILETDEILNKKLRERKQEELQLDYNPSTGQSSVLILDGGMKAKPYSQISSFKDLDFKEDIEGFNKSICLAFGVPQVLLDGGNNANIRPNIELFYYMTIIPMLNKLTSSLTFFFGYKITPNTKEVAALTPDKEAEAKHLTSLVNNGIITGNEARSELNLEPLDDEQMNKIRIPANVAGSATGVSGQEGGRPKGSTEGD
The experiment in a line: native agarose gel retardation, [protein]/[binding sites on the capsid] = 1+/-0.1.

B1: decoration protein pb10 of phage T5 (other)
chain: MGIDYSGLRTIFGEKLPESHIFFATVAAHKYVPSYAFLRRELGLSSAHTNRKVWKKFVEAYGKAIPPAPPAPPLTLSKDLTASMSVEEGAALTLSVTATGGTGPYTYAWTKDGSPIPDASGATYTKPTAAAEDAGSYKVTVTDSKQVSKDSTTCAVTVNPTVPGGLE
notes: Monomeric; also called native protein pb10; pb10 H6
In the case of B1, the binding result in assay [1] and in assay [4] was “binds” in each case. The Kd in assay [2] is 1.11 pM; in assay [3], 2.25 pM.

B2: pb10N-Ter-OVAH6 (N-terminal domain of pb10 fused with ovalbumin, His-tagged) (other)
chain: MGIDYSGLRTIFGEKLPESHIFFATVAAHKYVPSYAFLRRELGLSSAHTNRKVWKKFVEAYGKAIPPAPPAPPMGSIGAASMEFCFDVFKELKVHHANENIFYCPIAIMSALAMVYLGAKDSTRTQINKVVRFDKLPGFGDSIEAQCGTSVNVHSSLRDILNQITKPNDVYSFSLASRLYAEERYPILPEYLQCVKELYRGGLEPINFQTAADQARELINSWVESQTNGIIRNVLQPSSVDSQTAMVLVNAIVFKGLWEKAFKDEDTQAMPFRVTEQESKPVQMMYQIGLFRVASMASEKMKILELPFASGTMSMLVLLPDEVSGLEQLESIINFEKLTEWTSSNVMEERKIKVYLPRMKMEEKYNLTSVLMAMGITDVFSSSANLSGISSAESLKISQAVHAAHAEINEAGREVVGSAEAGVDAASVSEEFRADHPFLFCIKHIATNAVLFFGRCVSP
Take B2: binding in assay [3] was characterised by a dissociation constant (Kd) of 1.22 pM.

B3: pb10-OVAH6 (whole protein pb10 fused with ovalbumin, His-tagged) (other)
chain: MGIDYSGLRTIFGEKLPESHIFFATVAAHKYVPSYAFLRRELGLSSAHTNRKVWKKFVEAYGKAIPPAPPAPPLTLSKDLTASMSVEEGAALTLSVTATGGTGPYTYAWTKDGSPIPDASGATYTKPTAAAEDAGSYKVTVTDSKQVSKDSTTCAVTVNPTVPGGMGSIGAASMEFCFDVFKELKVHHANENIFYCPIAIMSALAMVYLGAKDSTRTQINKVVRFDKLPGFGDSIEAQCGTSVNVHSSLRDILNQITKPNDVYSFSLASRLYAEERYPILPEYLQCVKELYRGGLEPINFQTAADQARELINSWVESQTNGIIRNVLQPSSVDSQTAMVLVNAIVFKGLWEKAFKDEDTQAMPFRVTEQESKPVQMMYQIGLFRVASMASEKMKILELPFASGTMSMLVLLPDEVSGLEQLESIINFEKLTEWTSSNVMEERKIKVYLPRMKMEEKYNLTSVLMAMGITDVFSSSANLSGISSAESLKISQAVHAAHAEINEAGREVVGSAEAGVDAASVSEEFRADHPFLFCIKHIATNAVLFFGRCVSP
B3 displayed a Kd in assay [3] of 2.34 pM.
